Assay results as given in patent US20230151091A1 (NEW YORK UNIVERSITY, published 2023).
Blank lines part the entries; values can stand above or below the binder they belong to.

Tests used:
[1] = target: T1, human MuSK (human, UniProt O15146 24-495); experiment: ELISA, plate coated with human MuSK at 0.2 µg/ml, dilution series of mAb, goat anti human Fc-HRP and TMB, OD 620 nm (8 min)
T1 construct: Recombinant protein coated on ELISA plates (R&D Systems cat. 10189-MK) or on the Biacore chip; also called human muscle-specific tyrosine protein kinase; full length human MuSK
T1 sequence: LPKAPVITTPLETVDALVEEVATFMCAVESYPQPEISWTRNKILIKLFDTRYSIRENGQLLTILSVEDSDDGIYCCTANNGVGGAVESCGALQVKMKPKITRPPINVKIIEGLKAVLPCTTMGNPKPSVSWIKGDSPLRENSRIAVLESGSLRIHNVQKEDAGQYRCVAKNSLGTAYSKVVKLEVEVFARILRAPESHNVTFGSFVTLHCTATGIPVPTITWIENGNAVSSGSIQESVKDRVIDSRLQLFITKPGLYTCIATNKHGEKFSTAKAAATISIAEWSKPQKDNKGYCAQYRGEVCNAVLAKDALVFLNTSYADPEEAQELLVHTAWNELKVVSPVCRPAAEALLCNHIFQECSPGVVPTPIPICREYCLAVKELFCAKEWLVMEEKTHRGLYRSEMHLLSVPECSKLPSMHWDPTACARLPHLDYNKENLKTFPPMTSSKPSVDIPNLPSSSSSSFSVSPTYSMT
Description: (§1) An ELISA plate was coated with human MuSK (R&D Systems, cat. 10189-MK) or mouse MuSK (in house produced in HEK293 cells) at 0.2 μg/ml. After washing and blocking the plate, a dilution series of the anti-MuSK antibodies was applied and allowed to bind for 2 hours at room temperature. […] OD at 620 nm was measured with a 96 well ELISA plate reader.

[2] = target: T2, mouse MuSK (mouse, UniProt Q61006 22-494, limits assumed); experiment: ELISA, plate coated with mouse MuSK at 0.2 µg/ml, dilution series of mAb, goat anti human Fc-HRP and TMB, OD 620 nm (8 min)
T2 construct: Coated on ELISA plates or on the Biacore chip; also called full length mouse MuSK; mouse MuSK (in house produced in HEK293 cells)
T2 sequence (looked up): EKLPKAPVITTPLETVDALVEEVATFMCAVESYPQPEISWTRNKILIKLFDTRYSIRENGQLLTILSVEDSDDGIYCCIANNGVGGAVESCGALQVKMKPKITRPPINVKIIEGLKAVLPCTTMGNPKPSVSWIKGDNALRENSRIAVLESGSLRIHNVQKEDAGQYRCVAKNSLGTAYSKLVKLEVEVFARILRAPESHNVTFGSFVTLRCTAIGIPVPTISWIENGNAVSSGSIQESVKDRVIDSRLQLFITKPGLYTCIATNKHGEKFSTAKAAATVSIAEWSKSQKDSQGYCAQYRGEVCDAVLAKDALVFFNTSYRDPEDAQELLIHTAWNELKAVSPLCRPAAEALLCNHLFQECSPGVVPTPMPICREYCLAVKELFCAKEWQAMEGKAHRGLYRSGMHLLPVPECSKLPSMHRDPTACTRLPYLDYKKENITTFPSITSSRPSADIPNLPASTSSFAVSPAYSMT
Description: as §1

[3] = target: T3, hECD: full-length extracellular region of human MuSK (E22 to T495) with C-terminal Avi- and His6-tags (human, UniProt O15146 22-495, biotinylated in vitro using the BirA enzyme); experiment: bead-binding assay, IgG format: biotinylated antigen on streptavidin beads, flow cytometry, 1:1 fit; average ± s.d., n=3
T3 construct: also called human ECD; not shown: Avi- and His6-tags
T3 sequence: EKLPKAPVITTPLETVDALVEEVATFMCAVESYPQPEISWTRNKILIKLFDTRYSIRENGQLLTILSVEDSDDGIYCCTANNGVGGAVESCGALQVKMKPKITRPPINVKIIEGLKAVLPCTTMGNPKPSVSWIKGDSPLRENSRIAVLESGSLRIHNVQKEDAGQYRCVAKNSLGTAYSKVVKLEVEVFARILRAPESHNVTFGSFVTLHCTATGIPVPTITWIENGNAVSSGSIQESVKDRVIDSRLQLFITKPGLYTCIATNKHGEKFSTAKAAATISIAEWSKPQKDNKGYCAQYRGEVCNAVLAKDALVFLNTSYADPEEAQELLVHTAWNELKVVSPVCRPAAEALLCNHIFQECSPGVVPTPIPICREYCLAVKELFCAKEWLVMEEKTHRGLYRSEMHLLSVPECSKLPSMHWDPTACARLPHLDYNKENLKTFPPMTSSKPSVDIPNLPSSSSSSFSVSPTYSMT

[4] = target: T4, hFz: Fz domain and C-terminal flanking sequence of human MuSK (K314-T495) with C-terminal Avi- and His6-tags (human, UniProt O15146 314-495, biotinylated in vitro using the BirA enzyme); experiment: as above
T4 construct: also called human Fz; not shown: Avi- and His6-tags
T4 sequence: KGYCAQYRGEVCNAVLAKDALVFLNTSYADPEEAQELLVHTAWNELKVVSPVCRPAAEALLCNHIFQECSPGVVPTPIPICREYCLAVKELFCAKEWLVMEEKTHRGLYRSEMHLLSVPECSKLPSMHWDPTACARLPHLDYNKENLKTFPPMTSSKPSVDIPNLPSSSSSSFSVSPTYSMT

[5] = target: T5, mECD: full-length extracellular region of mouse MuSK (E22 to T494) with C-terminal Avi- and His6-tags (mouse, UniProt Q61006 22-494, biotinylated in vitro using the BirA enzyme); experiment: as above
T5 construct: range 22-494; also called mouse ECD; not shown: Avi- and His6-tags
T5 sequence (looked up): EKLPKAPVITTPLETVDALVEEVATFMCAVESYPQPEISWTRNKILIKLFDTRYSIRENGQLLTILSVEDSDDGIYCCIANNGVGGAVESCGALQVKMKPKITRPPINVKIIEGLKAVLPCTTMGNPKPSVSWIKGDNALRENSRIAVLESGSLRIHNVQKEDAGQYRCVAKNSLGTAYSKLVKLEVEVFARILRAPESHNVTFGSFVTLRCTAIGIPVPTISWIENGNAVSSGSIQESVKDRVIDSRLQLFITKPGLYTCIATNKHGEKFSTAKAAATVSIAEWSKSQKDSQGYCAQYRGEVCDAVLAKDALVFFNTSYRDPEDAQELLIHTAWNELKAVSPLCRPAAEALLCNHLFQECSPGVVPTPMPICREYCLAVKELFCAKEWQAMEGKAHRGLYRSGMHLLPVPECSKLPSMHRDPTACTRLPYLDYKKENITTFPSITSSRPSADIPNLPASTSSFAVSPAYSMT

[6] = target: T6, mFz: Fz domain and C-terminal flanking sequence of mouse MuSK (D307 to T494) with C-terminal Avi- and … (mouse, UniProt Q61006 307-494, limits assumed, biotinylated in vitro using the BirA enzyme); experiment: as above
T6 construct: also called mouse Fz; not shown: Avi- and His6-tags
T6 sequence (looked up): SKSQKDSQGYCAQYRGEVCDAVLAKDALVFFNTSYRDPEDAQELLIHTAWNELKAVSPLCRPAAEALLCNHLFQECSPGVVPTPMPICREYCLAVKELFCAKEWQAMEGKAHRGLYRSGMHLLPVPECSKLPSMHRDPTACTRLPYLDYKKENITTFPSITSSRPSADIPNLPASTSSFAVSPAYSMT

[7] = target: T7, mouse MuSK, endogenous (C2C12 myotubes; neuromuscular synapses of mice) (mouse, UniProt Q61006 22-868); experiment: in vivo: wildtype mice injected i.p., diaphragm stained two days later with anti-human F(ab')2 Alexa 647 and Alexa 488-alpha-BGT; ratio of signal intensities at the synapse [continued]
T7 construct: whole, on cells; also called MuSK at the synapse; synaptic MuSK
T7 sequence (looked up): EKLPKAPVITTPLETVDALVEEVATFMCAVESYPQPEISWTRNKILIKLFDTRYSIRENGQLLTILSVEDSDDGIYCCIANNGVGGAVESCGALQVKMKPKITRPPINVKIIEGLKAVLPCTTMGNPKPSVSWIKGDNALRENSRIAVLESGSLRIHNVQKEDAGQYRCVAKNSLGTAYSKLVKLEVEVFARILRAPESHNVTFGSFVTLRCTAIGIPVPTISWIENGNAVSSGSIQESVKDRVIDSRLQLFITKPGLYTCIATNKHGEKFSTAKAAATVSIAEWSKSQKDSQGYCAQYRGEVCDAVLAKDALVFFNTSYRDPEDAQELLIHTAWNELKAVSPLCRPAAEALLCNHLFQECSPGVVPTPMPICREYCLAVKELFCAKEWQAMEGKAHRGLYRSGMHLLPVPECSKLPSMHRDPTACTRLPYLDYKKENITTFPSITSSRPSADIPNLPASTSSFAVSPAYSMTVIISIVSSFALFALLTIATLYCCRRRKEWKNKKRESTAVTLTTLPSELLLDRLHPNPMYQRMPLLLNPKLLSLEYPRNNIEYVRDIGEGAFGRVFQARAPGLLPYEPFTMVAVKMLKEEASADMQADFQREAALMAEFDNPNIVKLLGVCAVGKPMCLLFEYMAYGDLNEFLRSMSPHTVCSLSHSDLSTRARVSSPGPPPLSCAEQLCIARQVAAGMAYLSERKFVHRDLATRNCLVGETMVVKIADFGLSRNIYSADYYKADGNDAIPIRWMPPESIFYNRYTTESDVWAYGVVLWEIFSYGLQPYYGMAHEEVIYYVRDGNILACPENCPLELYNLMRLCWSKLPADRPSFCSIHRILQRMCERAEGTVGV

[8] = target: T2, mouse MuSK; experiment: Biacore, Fab
Description: (§2) For affinity determination, a CMS chip was coated with either human or mouse MuSK (200RU) and a dilution series of the antibodies (mAbs and Fabs) was applied in order to be able to calculate the affinity.

[9] = target: T1, human MuSK; experiment: Biacore, MuSK on chip (200RU), Fab dilution series
Description: as §2

[10] = target: T2, mouse MuSK; experiment: Biacore, MuSK on chip (200RU), Fab dilution series
Description: as §2

B1: 16F11 (antibody, V domains shown)
VH: EVQLVESGGGLVQPGGSLSLSCVASGFTFSLYYMNWVRQAPGKGLEWLSVIDTHSIAYYADSVKGRFTISRDNVKNTLYLQLNNLKPEDTALYYCVLGRTALVRWGQGTQVTVSS
VL: DIVMTQSPSSVTASVGEKVTINCKSSQSVVFGSNQKSYLNWYQQRPGQSPRLLIYYASTQESGIPDRFSGSGSTTDFTLTISSVQPEDAAVYYCQQAYSAPTFGSGTRLEIK
notes: human IgG1 with the LALA mutations (L234A, L235A); produced in HEK293 cells
EC50 (read off the curve) [1]: ~0.02 mg/L
EC50 (read off the curve) [2]: ~0.02 mg/L

B4: 30A11 Fab (Fab, V domains shown)
VH: QVQVQESGPGLVKPSQTLSLTCTVSGGSITARYYSWSWIRQPPGKGLEWMGVIAYDGSTYYSPSLKSRTSISRDTSKNQFSLHLSSVTPDDTAVYYCARGSSRVAAAFDSWGQGTQVTVSS
VL: SYELTQSPSVTVALRQTAKITCGGDNIASKNVQWYQQKPGQAPSLVIWADSRRPSGIPVRFSGSNFGNTATLTISGAQAEDEADYYCQVWDSSTNVAVFGGGTHLTVL
notes: Fab format
fold difference in affinity, human versus mouse MuSK [8]: ≥ 1000 fold
Kd [9]: 0.008 nM
Kd [10]: 2.42 nM

Other lines, results leading:

Kd [3]: 0.97 nM
Kd [4]: 0.61 nM
Kd [5]: 1.1 nM
Kd [6]: 0.74 nM
EC50 (read off the curve) [7]: ~0.5 mg/kg
B2: mIgG2a-X17 (antibody, V domains shown)
VH: EVQLVESGGGLVQPGGSLRLSCAASGFTISYSSIHWVRQAPGKGLEWVASIYSSSGSTYYADSVKGRFTISADTSKNTAYLQMNSLRAEDTAVYYCARGDHGYYVFGYLGMDYWGQGTLVTVSS
VL: DIQMTQSPSSLSASVGDRVTITCRASQSVSSAVAWYQQKPGKAPKLLIYSASSLYSGVPSRFSGSRSGTDFTLTISSLQPEDFATYYCQQSYKPGALITFGQGTKVEIK
notes: chimeric antibody of a human Fab (human CH1) and mouse IgG2a Fc with the LALAPG mutations; also called X17-mIgG2a-LALAPG; antibody X17

fold difference in affinity, human versus mouse MuSK [8]: ≥ 1000 fold
Kd [9]: 0.07 nM
Kd [10]: 5.39 nM
B3: 30E1 Fab (Fab, V domains shown)
VH: QVQVQESGPGLVKPSQTLSLTCTVSGGSITARYYSWSWIRQPPGKGLEWMGVIAYDGSTYYSPSLKSRTSISRDTSKNQFSLHLSSVTPDDTAVYYCARGSSRVAAAFDSWGQGTQVTVSS
VL: SYELTQSPSVSVALRRTAKITCGGDNIGSKNTQWYQQKPGQAPVLVIYADSRRPSGIPERFSGSNSGNTATLTISGAQAEDEADYYCHVWDSSTNAWFGGGTHLTVL
notes: Fab format
